{"source": "patent US20180360932A1", "about": "(OPKO BIOLOGICS, published 2018)", "biological_target": "MOD-5014 (FVIIa-CTP3, activated Factor VII-CTP-CTP-CTP) (human) (UniProt P08709)", "test": "cell-based or functional assay"}
{"substance": "Tissue factor pathway inhibitor (TFPI) (from UniProt P10646 29-304)", "values": [{"measurement": "sensitivity of FVIIa/TF generation of FXa to TFPI inhibition, relative to MOD-5000", "value": 124, "unit": "%"}]}
